Data set [1] has as its target T1, Ago1 (RISC, embryo lysate) (Drosophila w[*]; AGO2[414] embryos, 0-8 …, UniProt A1Z9J5 1-950). As to the kind of experiment: competition; let-7 guide; reference; RBNS: 20 mM HEPES-KOH pH 7.9, 100 mM KOAc, 3.5 mM Mg(OAc)2, 0.05% CHAPS, 2 mM DTT, 8% glycerol, BSA, tRNA, 25 C, 2 h; filter binding: 25 mM HEPES-KOH pH 7.9, 110 mM KOAc, 3.5 mM Mg(OAc)2, 2 mM DTT, 25 C; competition: 18 mM HEPES-KOH pH 7.4, 100 mM KOAc, 3 mM Mg(OAc)2, 5 mM DTT, 25 C. The settings on record: protein: native; g2-21 paired.

Data set [2] concerns the target T2, FLAG-Ago1 (RISC) (Drosophila melanogaster, UniProt A1Z9J5 1-950). As to the kind of experiment: RNA Bind-n-Seq (filter binding, sequencing, MLE); miR-11 guide; 20 mM HEPES-KOH pH 7.9, 100 mM potassium acetate, 3.5 mM magnesium acetate, 0.05% CHAPS, 2 mM DTT, 8% glycerol, 0.05 ug/ul BSA, 0.01 mg/ml yeast tRNA, 100 nM RNA library, 25 C, 2 h. The conditions noted are these: protein: recombinant; tags: FLAG.

Data set [3] deals with T1, Ago1 (RISC, embryo lysate). As to the kind of experiment: competition; let-7 guide; nearly same affinity as fully complementary; RBNS: 20 mM HEPES-KOH pH 7.9, 100 mM KOAc, 3.5 mM Mg(OAc)2, 0.05% CHAPS, 2 mM DTT, 8% glycerol, BSA, tRNA, 25 C, 2 h; filter binding: 25 mM HEPES-KOH pH 7.9, 110 mM KOAc, 3.5 mM Mg(OAc)2, 2 mM DTT, 25 C; competition: 18 mM HEPES-KOH pH 7.4, 100 mM KOAc, 3 mM Mg(OAc)2, 5 mM DTT, 25 C. The conditions noted are these: protein: native; g2-21 paired, G:U at g4.

Data set [4] has as its target T2, FLAG-Ago1 (RISC). As to the kind of experiment: RNA Bind-n-Seq (filter binding, sequencing, MLE); let-7 guide; 20 mM HEPES-KOH pH 7.9, 100 mM potassium acetate, 3.5 mM magnesium acetate, 0.05% CHAPS, 2 mM DTT, 8% glycerol, 0.05 ug/ul BSA, 0.01 mg/ml yeast tRNA, 100 nM RNA library, 25 C, 2 h. The conditions noted are these: protein: recombinant; tags: FLAG; t2-t8 plus t1A.

The target in data set [5] is T1, Ago1 (RISC, embryo lysate). As to the kind of experiment: competition; let-7 guide; RBNS: 20 mM HEPES-KOH pH 7.9, 100 mM KOAc, 3.5 mM Mg(OAc)2, 0.05% CHAPS, 2 mM DTT, 8% glycerol, BSA, tRNA, 25 C, 2 h; filter binding: 25 mM HEPES-KOH pH 7.9, 110 mM KOAc, 3.5 mM Mg(OAc)2, 2 mM DTT, 25 C; competition: 18 mM HEPES-KOH pH 7.4, 100 mM KOAc, 3 mM Mg(OAc)2, 5 mM DTT, 25 C. The settings on record: protein: native; g2-21 paired, G:U at g4 and g5.

These results are taken from article PMC12905440, “Biochemical principles of miRNA targeting in flies”.

T1 sequence (A1Z9J5 entry or part of it): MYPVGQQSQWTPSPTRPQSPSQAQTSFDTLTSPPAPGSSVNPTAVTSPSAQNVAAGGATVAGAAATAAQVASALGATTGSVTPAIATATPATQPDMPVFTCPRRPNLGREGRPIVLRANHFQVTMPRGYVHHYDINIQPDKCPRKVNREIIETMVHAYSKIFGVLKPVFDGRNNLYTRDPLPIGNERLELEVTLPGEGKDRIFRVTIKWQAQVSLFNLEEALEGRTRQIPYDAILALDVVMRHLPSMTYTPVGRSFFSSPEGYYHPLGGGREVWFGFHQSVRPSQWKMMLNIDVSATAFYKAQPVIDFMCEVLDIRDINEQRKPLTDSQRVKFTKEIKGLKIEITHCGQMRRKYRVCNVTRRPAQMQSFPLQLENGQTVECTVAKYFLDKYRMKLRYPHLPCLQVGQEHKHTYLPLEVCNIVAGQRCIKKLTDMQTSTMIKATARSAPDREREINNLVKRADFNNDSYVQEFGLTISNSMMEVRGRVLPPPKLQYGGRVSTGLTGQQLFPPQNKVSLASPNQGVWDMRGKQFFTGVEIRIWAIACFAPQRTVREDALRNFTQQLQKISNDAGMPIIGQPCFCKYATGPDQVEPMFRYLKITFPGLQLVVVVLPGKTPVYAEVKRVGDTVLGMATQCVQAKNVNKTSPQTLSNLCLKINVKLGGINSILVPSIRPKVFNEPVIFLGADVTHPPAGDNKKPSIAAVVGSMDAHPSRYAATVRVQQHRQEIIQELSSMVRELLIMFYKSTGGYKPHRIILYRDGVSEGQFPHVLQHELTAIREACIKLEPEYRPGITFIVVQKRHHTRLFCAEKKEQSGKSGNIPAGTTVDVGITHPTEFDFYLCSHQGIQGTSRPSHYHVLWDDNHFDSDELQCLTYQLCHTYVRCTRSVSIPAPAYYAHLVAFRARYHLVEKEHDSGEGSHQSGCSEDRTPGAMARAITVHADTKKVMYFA
T2 sequence (A1Z9J5 entry or part of it): as above

B1: let-7 guide / g2-21 complementary target (dsRNA)
RNA 1: GAUACUAUACAACCUACUACCUCAACCU
RNA 2: UGAGGUAGUAGGUUGUAUAGU
modifications: 2'-O-methyl C and U around a phosphorothioate (CmCpsmU) in target
For the molecule B1, in data set [1], the binding result is recorded as “binds”.

B2: miR-11 / 6mer (mixed)
RNA 1: UGUGAU
RNA 2: CAUCACAGUCUGAGUUCUUGC
modifications: guide 5' phosphate
One may read the Kd as a measure of binding affinity in units of concentration. Consider B2, for which the Kd in data set [2] was determined as 0.388 ± 0.0906 nM.

B3: let-7 guide / g2-21 target, G:U at position 4 (dsRNA)
RNA 1: GAUACUAUACAACCUACUACUUCAACCU
RNA 2: UGAGGUAGUAGGUUGUAUAGU
modifications: 2'-O-methyl C and U around a phosphorothioate (CmCpsmU) in target
Turning to B3, the binding result in data set [3] was “binds”.

B4: miR-11 / 6mer-A1 (mixed)
RNA 1: GUGAUA
RNA 2: CAUCACAGUCUGAGUUCUUGC
modifications: guide 5' phosphate
As to B4, the Kd in data set [2] came out at 0.404 ± 0.0996 nM.

B5: let-7 / 8mer (mixed)
RNA 1: CUACCUCA
RNA 2: UGAGGUAGUAGGUUGUAUAGU
modifications: guide 5' phosphate
For the molecule B5, in data set [4], the dissociation constant (Kd) is 0.005 ± 0.00169 nM.

B6: let-7 guide / g2-21 target, G:U at positions 4-5 (dsRNA)
RNA 1: GAUACUAUACAACCUACUAUUUCAACCU
RNA 2: UGAGGUAGUAGGUUGUAUAGU
modifications: 2'-O-methyl C and U around a phosphorothioate (CmCpsmU) in target
With B6, the binding signal in data set [5] was found to be 120 fold lower affinity.
